Test results from patent US20250154231A1.
Where two headings read alike, the source gives them in different places.

Key:
Assay in all cases: cell-based or functional assay
[1] = biological target: SARS-CoV-2 spike (S) protein, synthetic variant "BA.4+all"
[2] = biological target: SARS-CoV-2 spike (S) protein, Omicron BA.2 + D339H (SARS-CoV-2) (UniProt P0DTC2)
[3] = biological target: SARS-CoV-2 spike (S) protein, Omicron BA.2 + N460K (SARS-CoV-2) (UniProt P0DTC2)
[4] = biological target: SARS-CoV-2 spike (S) protein, Omicron BA.2 + G446S (SARS-CoV-2) (UniProt P0DTC2)
[5] = biological target: SARS-CoV-2 spike (S) protein, Omicron BA.2 + N460K (SARS-CoV-2) (UniProt P0DTC2); remark: listed apart in the source
[6] = biological target: SARS-CoV-2 Omicron BA.1.1 spike (S) protein, pseudovirus construct (SARS-CoV-2) (UniProt P0DTC2)
[7] = biological target: SARS-CoV-2 Victoria spike (S) protein (SARS-CoV-2) (UniProt P0DTC2)
[8] = biological target: SARS-CoV-2 Omicron BA.1 spike (S) protein, pseudovirus construct (SARS-CoV-2) (UniProt P0DTC2)
[9] = biological target: SARS-CoV-2 Omicron BA.3 spike (S) protein, pseudovirus construct (SARS-CoV-2) (UniProt P0DTC2)
[10] = biological target: SARS-CoV-2 Omicron BA.2 spike (S) protein, pseudovirus construct (SARS-CoV-2) (UniProt P0DTC2)

Omi-12 (antibody), sequence (VH): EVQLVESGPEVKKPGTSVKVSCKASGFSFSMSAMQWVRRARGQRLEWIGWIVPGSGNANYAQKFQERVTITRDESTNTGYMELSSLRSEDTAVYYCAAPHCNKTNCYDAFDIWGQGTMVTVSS
Omi-12 (antibody), sequence (VL): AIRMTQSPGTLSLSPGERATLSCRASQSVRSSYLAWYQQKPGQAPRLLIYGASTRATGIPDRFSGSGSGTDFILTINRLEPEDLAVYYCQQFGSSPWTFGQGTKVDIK
Omi-18 (antibody), sequence (VH): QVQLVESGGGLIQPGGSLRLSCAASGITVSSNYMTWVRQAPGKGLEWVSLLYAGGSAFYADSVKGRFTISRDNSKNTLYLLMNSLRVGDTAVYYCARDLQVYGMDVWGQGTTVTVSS
Omi-18 (antibody), sequence (VL): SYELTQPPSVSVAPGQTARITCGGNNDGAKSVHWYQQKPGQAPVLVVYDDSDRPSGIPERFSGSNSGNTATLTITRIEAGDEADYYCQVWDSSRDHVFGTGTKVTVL
Omi-29 (antibody), sequence (VH): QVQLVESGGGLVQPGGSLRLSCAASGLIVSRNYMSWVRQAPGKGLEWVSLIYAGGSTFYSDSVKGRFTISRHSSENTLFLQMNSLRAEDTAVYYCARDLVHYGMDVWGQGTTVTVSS
Omi-29 (antibody), sequence (VL): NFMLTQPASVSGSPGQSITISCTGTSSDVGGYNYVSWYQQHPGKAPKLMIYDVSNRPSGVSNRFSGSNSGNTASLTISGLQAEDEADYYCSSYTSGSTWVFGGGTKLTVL
Omi-32 (antibody), sequence (VH): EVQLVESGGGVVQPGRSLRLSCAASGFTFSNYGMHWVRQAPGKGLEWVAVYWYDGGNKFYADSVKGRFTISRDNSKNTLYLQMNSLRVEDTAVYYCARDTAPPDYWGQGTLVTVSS
Omi-32 (antibody), sequence (VL): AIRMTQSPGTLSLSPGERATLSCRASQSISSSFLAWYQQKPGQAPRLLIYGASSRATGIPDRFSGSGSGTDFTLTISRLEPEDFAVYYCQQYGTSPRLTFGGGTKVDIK
Omi-42 (antibody), sequence (VH): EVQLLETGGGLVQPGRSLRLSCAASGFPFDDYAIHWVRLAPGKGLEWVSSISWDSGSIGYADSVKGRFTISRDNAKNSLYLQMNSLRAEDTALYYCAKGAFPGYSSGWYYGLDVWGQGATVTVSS
Omi-42 (antibody), sequence (VL): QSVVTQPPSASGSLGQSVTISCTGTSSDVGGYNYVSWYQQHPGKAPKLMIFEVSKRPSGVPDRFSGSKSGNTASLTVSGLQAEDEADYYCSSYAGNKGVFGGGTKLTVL
AZD8895 (antibody), sequence (VH): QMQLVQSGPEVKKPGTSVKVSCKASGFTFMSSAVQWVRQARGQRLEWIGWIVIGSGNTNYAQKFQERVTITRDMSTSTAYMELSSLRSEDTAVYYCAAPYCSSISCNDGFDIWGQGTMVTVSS
AZD8895 (antibody), sequence (VL): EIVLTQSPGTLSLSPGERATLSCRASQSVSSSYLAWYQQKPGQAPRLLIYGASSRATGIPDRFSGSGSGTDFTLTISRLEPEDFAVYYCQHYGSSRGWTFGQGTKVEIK

Substance	IC50, pseudoviral neutralization [1]	pseudovirus neutralisation IC50 [2]	pseudovirus neutralisation IC50 [3]	pseudovirus neutralisation IC50 [4]	pseudovirus neutralisation IC50 [5]	further results
Omi-32 (antibody)	> 10 µg/mL	683 ng/mL	2.34 µg/mL	0.33 µg/mL	2.34 µg/mL	–
Omi-03 (antibody)	0.432 µg/mL	6 ng/mL	0.401 µg/mL	0.005 µg/mL	0.401 µg/mL	–
REGN10987 (antibody)	> 10 µg/mL	–	–	–	–	–
S309 (antibody)	0.584 µg/mL	–	–	–	–	–
AZD7442 (a combination of AZD8895 and AZD1061)	> 10 µg/mL	–	–	–	–	–
Ly-CoV16 (antibody)	> 10 µg/mL	–	–	–	–	–
Omi-12 (antibody)	> 10 µg/mL	3 ng/mL	0.011 µg/mL	0.003 µg/mL	0.011 µg/mL	–
AZD1061 (antibody)	> 10 µg/mL	–	–	–	–	–
Omi-42 (antibody)	0.008 µg/mL	11 ng/mL	0.007 µg/mL	0.016 µg/mL	0.007 µg/mL	–
REGN10933 (antibody)	> 10 µg/mL	–	–	–	–	–
Omi-29 (antibody)	> 10 µg/mL	18 ng/mL	> 10 µg/mL	0.024 µg/mL	> 10 µg/mL	–
Known Antibody E (AZD7442)	–	–	–	–	–	IC50 (ug/ml), pseudovirus [6]: 0.806 µg/mL; IC50 (ug/ml), pseudovirus [7]: 0.001 µg/mL; IC50 (ug/ml), pseudovirus [8]: 0.232 µg/mL; IC50 (ug/ml), pseudovirus [9]: 0.065 µg/mL; IC50 (ug/ml), pseudovirus [10]: 0.008 µg/mL
ADG20 (antibody)	> 10 µg/mL	–	–	–	–	–
Omi-18 (antibody)	3.61 µg/mL	3 ng/mL	0.014 µg/mL	0.003 µg/mL	0.014 µg/mL	–
AZD8895 (antibody)	> 10 µg/mL	–	–	–	–	–
Ly-CoV555 (antibody)	> 10 µg/mL	–	–	–	–	–
LY-CoV1404 (bebtelovimab) (antibody)	> 10 µg/mL	–	–	–	–	–
